Test results reported in the supplement of paper PMC9112550, “Optimization of the antimicrobial peptide Bac7 by deep mutational scanning” (BMC Biology, 2022).

Tested on: Escherichia coli TOP10
Test: shrunken log2 fold change of peptide-encoding DNA abundance (4.5 h post-induction vs induction); higher = less antimicrobial activity (less host growth inhibition)
Details: time post-induction: 4.5 h; library: site-saturation at positions 5, 18, 19, 20
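Note: peptides expressed intracellularly from a pBAD plasmid library in pooled LB shake-flask culture, induced with 0.3% L-arabinose, DNA abundance read by NGS, three biological replicates, DESeq2 with apeglm shrinkage.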

Sequence	shrunken log2 fold change
RRIRDRPPRLPRPRPRPNFHPRP	-0.0585
RRIRSRPPRLPRPRPRPPMLPRP	0.0967
RRIRWRPPRLPRPRPRPWPDPRP	0.0849
RRIRTRPPRLPRPRPRPYKSPRP	-0.118
RRIRHRPPRLPRPRPRPTIRPRP	-0.689
RRIRFRPPRLPRPRPRPAQFPRP	0.156
RRIRARPPRLPRPRPRPMRIPRP	0.155
RRIRPRPPRLPRPRPRPDMRPRP	0.861
RRIRRRPPRLPRPRPRPFFHPRP	0.154
RRIRTRPPRLPRPRPRPVPNPRP	0.123
RRIRKRPPRLPRPRPRPFMNPRP	-0.0366
RRIRWRPPRLPRPRPRPKKVPRP	0.0465
RRIRKRPPRLPRPRPRPNCTPRP	0.335
RRIRSRPPRLPRPRPRPNDVPRP	-0.134
RRIRKRPPRLPRPRPRPNCAPRP	0.873
RRIRRRPPRLPRPRPRPICAPRP	0.127
RRIRQRPPRLPRPRPRPPHTPRP	1.08
RRIRARPPRLPRPRPRPMRHPRP	0.38
RRIRTRPPRLPRPRPRPFAGPRP	-0.0338
RRIRYRPPRLPRPRPRPQDFPRP	-0.481
RRIRDRPPRLPRPRPRPEMWPRP	2.04
RRIRRRPPRLPRPRPRPGISPRP	0.0929
RRIRNRPPRLPRPRPRPRISPRP	-0.408
RRIRVRPPRLPRPRPRPQGTPRP	-0.289
RRIRVRPPRLPRPRPRPQKHPRP	-0.247

Sequence	shrunken log2 fold change
RRIRCRPPRLPRPRPRPHYYPRP	-1.07
RRIRQRPPRLPRPRPRPVTRPRP	0.0193
RRIRIRPPRLPRPRPRPDVQPRP	-0.192
RRIRVRPPRLPRPRPRPRCPPRP	-0.00901
RRIRVRPPRLPRPRPRPLFVPRP	-0.175
RRIRSRPPRLPRPRPRPNHPPRP	-0.0712
RRIRKRPPRLPRPRPRPVNRPRP	0.0352
RRIRHRPPRLPRPRPRPDKLPRP	-0.0246
RRIRMRPPRLPRPRPRPHIFPRP	-0.268
RRIRLRPPRLPRPRPRPVILPRP	-1
RRIRIRPPRLPRPRPRPLFVPRP	-0.642
RRIRNRPPRLPRPRPRPWYRPRP	-0.117
RRIRVRPPRLPRPRPRPQKVPRP	-0.355
RRIRYRPPRLPRPRPRPPCQPRP	-0.212
RRIRNRPPRLPRPRPRPKHNPRP	-0.434
RRIRDRPPRLPRPRPRPDWVPRP	0.0881
RRIRFRPPRLPRPRPRPMYIPRP	-1.09
RRIRRRPPRLPRPRPRPKYYPRP	-0.199
RRIRERPPRLPRPRPRPSSFPRP	-0.426
RRIRNRPPRLPRPRPRPKRYPRP	0.0391
RRIRFRPPRLPRPRPRPINMPRP	-0.319
RRIRVRPPRLPRPRPRPNGLPRP	-0.0536
RRIRPRPPRLPRPRPRPHYHPRP	-0.936
RRIRARPPRLPRPRPRPIHWPRP	0.0725
RRIRARPPRLPRPRPRPKFWPRP	0.696

Sequence	shrunken log2 fold change
RRIRWRPPRLPRPRPRPYHAPRP	-0.295
RRIRLRPPRLPRPRPRPVHLPRP	-0.0235
RRIRSRPPRLPRPRPRPVRGPRP	0.573
RRIRKRPPRLPRPRPRPRAGPRP	0.48
RRIRRRPPRLPRPRPRPQTMPRP	0.0791
RRIRERPPRLPRPRPRPMWRPRP	-0.0079
RRIRRRPPRLPRPRPRPECEPRP	0.323
RRIRWRPPRLPRPRPRPIIMPRP	-0.241
RRIRERPPRLPRPRPRPLRFPRP	0.493
RRIRHRPPRLPRPRPRPDPQPRP	0.108
RRIRWRPPRLPRPRPRPQVEPRP	-0.00667
RRIRIRPPRLPRPRPRPIPGPRP	-0.191
RRIRLRPPRLPRPRPRPRWEPRP	0.0629
RRIRMRPPRLPRPRPRPYFVPRP	0.0021
RRIRRRPPRLPRPRPRPVIGPRP	0.149
RRIRPRPPRLPRPRPRPKHTPRP	-0.198
RRIRYRPPRLPRPRPRPDFKPRP	-0.261
RRIRIRPPRLPRPRPRPGIEPRP	-0.154
RRIRDRPPRLPRPRPRPGQRPRP	0.0563
RRIRHRPPRLPRPRPRPGGNPRP	0.00148
RRIRCRPPRLPRPRPRPFMNPRP	-0.00951
RRIRFRPPRLPRPRPRPFHIPRP	-0.663
RRIRQRPPRLPRPRPRPGNEPRP	0.177
RRIRERPPRLPRPRPRPAHQPRP	-0.136
RRIRNRPPRLPRPRPRPILLPRP	-0.103

Sequence	shrunken log2 fold change
RRIRDRPPRLPRPRPRPSTMPRP	0.0367
RRIRPRPPRLPRPRPRPFMDPRP	-0.248
RRIRFRPPRLPRPRPRPVAPPRP	0.243
RRIRCRPPRLPRPRPRPNHSPRP	-0.936
RRIRERPPRLPRPRPRPMKYPRP	0.0847
RRIRQRPPRLPRPRPRPFWFPRP	0.0862
RRIRARPPRLPRPRPRPVAHPRP	0.159
RRIRNRPPRLPRPRPRPKCSPRP	0.0607
RRIRERPPRLPRPRPRPNRIPRP	-0.0288
RRIRTRPPRLPRPRPRPLDCPRP	-0.294
RRIRCRPPRLPRPRPRPFITPRP	-0.639
RRIRRRPPRLPRPRPRPKRNPRP	0.525
RRIRFRPPRLPRPRPRPDCNPRP	-0.179
RRIRKRPPRLPRPRPRPPHKPRP	0.835
RRIRCRPPRLPRPRPRPLKNPRP	-0.208
RRIRIRPPRLPRPRPRPDPIPRP	-0.0427
RRIRRRPPRLPRPRPRPNNTPRP	0.00573
RRIRTRPPRLPRPRPRPKISPRP	-0.932
RRIRQRPPRLPRPRPRPTTVPRP	-0.114
RRIRLRPPRLPRPRPRPFMKPRP	-0.222
RRIRWRPPRLPRPRPRPWYSPRP	-0.534
RRIRRRPPRLPRPRPRPVRGPRP	0.805
RRIRCRPPRLPRPRPRPHKHPRP	-0.58
RRIRMRPPRLPRPRPRPACNPRP	0.39
RRIRHRPPRLPRPRPRPGKIPRP	-0.769

Sequence	shrunken log2 fold change
RRIRYRPPRLPRPRPRPRDVPRP	-0.0023
RRIRDRPPRLPRPRPRPRNLPRP	-0.0438
RRIRFRPPRLPRPRPRPPHVPRP	0.203
RRIRQRPPRLPRPRPRPHEDPRP	0.0107
RRIRFRPPRLPRPRPRPKTDPRP	-0.0282
RRIRPRPPRLPRPRPRPLVFPRP	0.257
RRIRIRPPRLPRPRPRPMRGPRP	1.32
RRIRERPPRLPRPRPRPFSWPRP	0.0616
RRIRTRPPRLPRPRPRPNMMPRP	-0.237
RRIRDRPPRLPRPRPRPFFLPRP	-0.261
RRIRCRPPRLPRPRPRPWIVPRP	-0.0435
RRIRWRPPRLPRPRPRPASLPRP	0.0313
RRIRQRPPRLPRPRPRPCGWPRP	0.502
RRIRDRPPRLPRPRPRPLVEPRP	0.331
RRIRKRPPRLPRPRPRPRTYPRP	0.0895
RRIRWRPPRLPRPRPRPPDLPRP	0.888
RRIRYRPPRLPRPRPRPLPCPRP	-0.413
RRIRARPPRLPRPRPRPFVVPRP	-0.312
RRIRRRPPRLPRPRPRPGHGPRP	1.04
RRIRNRPPRLPRPRPRPKVTPRP	-0.0149
RRIRRRPPRLPRPRPRPAMEPRP	0.019
RRIRDRPPRLPRPRPRPQTKPRP	-0.115
RRIRERPPRLPRPRPRPIERPRP	0.00274
RRIRERPPRLPRPRPRPRIIPRP	0.0824
RRIRQRPPRLPRPRPRPENEPRP	0.0608
